Test results from US20250076311A1 (Chugai, published 2025).

Assays:
[1] = target: T1, human FcγRIIb constitutively expressed on MDCK cells (human, UniProt P31994 43-310); test: cell-based or functional assay
T1 sequence (looked up): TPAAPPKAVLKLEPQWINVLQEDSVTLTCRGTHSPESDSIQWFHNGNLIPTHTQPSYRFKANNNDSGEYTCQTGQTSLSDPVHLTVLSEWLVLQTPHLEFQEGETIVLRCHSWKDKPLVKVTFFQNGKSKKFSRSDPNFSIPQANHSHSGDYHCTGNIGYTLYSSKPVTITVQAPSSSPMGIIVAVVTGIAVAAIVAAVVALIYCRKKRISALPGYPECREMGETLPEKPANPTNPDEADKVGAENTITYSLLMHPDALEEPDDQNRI

[2] = target: T2, soluble mouse FcγRII, His-tagged (mouse, UniProt P08101 30-210, limits assumed); test: SPR, mouse FcγRII captured via His-tag, antigen-antibody complex injected, pH 7.4, 25 C
T2 construct: Captured on the chip through an anti-His antibody
T2 sequence (looked up): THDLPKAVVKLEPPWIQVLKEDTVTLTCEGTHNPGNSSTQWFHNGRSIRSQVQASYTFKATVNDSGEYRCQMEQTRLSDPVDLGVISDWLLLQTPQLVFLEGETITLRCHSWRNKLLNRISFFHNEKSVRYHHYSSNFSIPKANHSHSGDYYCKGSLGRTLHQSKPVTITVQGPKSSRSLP
Procedure: Regarding the produced Fc region variant-containing antibodies, binding assays between soluble mouse FcγRII and antigen-antibody complexes were performed using BIACORE® T200 (GE Healthcare). Soluble mouse FcγRII was produced in the form of a His-tagged molecule by a method known to those skilled in the art. An appropriate amount of an anti-His antibody was fixed onto Sensor chip CM5 (GE Healthcare) by the amine coupling method using a His capture kit (GE Healthcare) to capture mouse FcγRII. Next, an antibody-antigen complex and a running buffer (as a reference solution) were injected, and interaction was allowed to take place with the mouse FcγRII captured onto the sensor chip. 20 mM N-(2-Acetamido)-2-aminoethanesulfonic acid, 150 mM NaCl, 1.2 mM CaCl₂), and 0.05% (w/v) TWEEN® 20 at pH7.4 was used as the running buffer, and the respective buffer was also used to dilute the soluble mouse FcγRII. To regenerate the sensor chip, 10 mM glycine-HCl at pH1.5 was used. All measurements were carried out at 25° C. […] To calculate the parameters, the BIACORE® T100 Evaluation Software (GE Healthcare) was used.

[3] = target: T3, cynomolgus monkey FcγRIIIaS extracellular domain with C-terminal His-tag (cynomolgus monkey, UniProt A3RFZ7 21-206 (rhesus entry)); test: SPR (BIACORE), antibody captured, FcgR analyte
T3 construct: also called cyno FcgRIIIaS; cynoFcγRIIIaS; not shown: His-tag added to the C-terminus
Procedure: (§1) The kinetic analysis of interactions between these antibodies and FcγR was carried out using BIACORE® T200 or BIACORE® 4000 (GE Healthcare). HBS-EP+ (GE Healthcare) was used as the running buffer, and the measurement temperature was set to 25° C. […] After the measurement, the antibody captured on the chip was washed off by allowing reaction with 10 mM glycine-HCl, pH1.5 and 25 mM NaOH so that the chip was regenerated and used repeatedly. The sensorgrams obtained as measurement results were analyzed by the 1:1 Langmuir binding model using the BIACORE® Evaluation Software to calculate the binding rate constant ka (L/mol/s) and dissociation rate constant kd (1/s), and the dissociation constant KD (mol/L) was calculated from these values. […] Regarding such interactions, KD values were calculated using the following 1:1 binding model described in BIACORE® T100 Software Handbook BR1006-48 Edition AE.
Target sequence in this assay (A3RFZ7 21-206): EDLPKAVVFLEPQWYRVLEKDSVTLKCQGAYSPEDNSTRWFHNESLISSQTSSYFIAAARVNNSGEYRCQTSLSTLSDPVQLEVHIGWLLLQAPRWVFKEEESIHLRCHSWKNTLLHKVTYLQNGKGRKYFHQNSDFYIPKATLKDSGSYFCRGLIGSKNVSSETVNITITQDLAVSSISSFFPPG

[4] = target: T4, cynomolgus monkey FcγRIIIaS extracellular domain with C-terminal His-tag (cynomolgus monkey, UniProt A3RFZ7 21-206 (rhesus entry)); test: SPR Biacore, antibody captured, FcgR analyte
T4 construct: also called cyno FcgRIIIaS; cynoFcγRIIIaS; not shown: His-tag added to C-terminus
Procedure: as §1
Target sequence in this assay (A3RFZ7 21-206): as above

B1: MS1032LO06-P1383m (antibody, human IgG1, kappa, name in EU numbering)
heavy: QVTLKESGPVLVKPTETLTLTCTVSGIDLSHDDISWVRQAPGKGLEWVGIISYAGSTYYASWAKGRLTISKDTSKNQVVLTMTNMDPVDTATYYCARGVPAYSHGGDLWGQGTLVTVSSASTKGPSVFPLAPSSKSTSGGTAALGCLVKDYFPEPVTVSWNSGALTSGVHTFPAVLQSSGLYSLSSVVTVPSSSLGTQTYICNVNHKPSNTKVDKKVEPKSCDKTHTCPPCPAPELLGGPSVFLFPPKPKDTLMISRTPEVTCVVVDVSHEDPEVKFNWYVDGVEVHNAKTKPREEQYNSTYRVVSVLTVLHRDWLNGKEYKCKVSNKALPAPIEKTISKAKGQPREPQVYTLPPSREEMTKNQVSLTCLVKGFYPSDIAVEWESNGQPENNYKTTPPVLDRDGSFFLYSKLTVKKSRWQQGNVFSCSVMHEALHNHYTQKSLSLSP
light: DIVMTQSPATLSLSPGERATLSCTSSQSVYHANWLSWFQQKPGQPPKLLIYWASTLAYGVPSRFSGSGSGTDFTLTISSLQPEDAATYYCAGGYGGGRYAFGQGTKVEIKRTVAAPSVFIFPPSDEQLKSGTASVVCLLNNFYPREAKVQWKVDNALQSGNSQESVTEQDSKDSTYSLSSTLTLSKADYEKHKVYACEVTHQGLSSPVTKSFNRGEC
notes: also called M103205H795-P1383m; copies: 2 + 2
With B1 the “celluar uptake (labelled human latent myostatin taken up as antigen-antibody complex)” value [1] was 5.68 relative to SG1 = 1.00 and the “biacore IC binding (relative, SG1 = 1.00)” value [2] was 1.41 relative to SG1.

B2: MS_M103205H795-SG1/M103202L889-SK1 (antibody, human IgG1, kappa)
heavy: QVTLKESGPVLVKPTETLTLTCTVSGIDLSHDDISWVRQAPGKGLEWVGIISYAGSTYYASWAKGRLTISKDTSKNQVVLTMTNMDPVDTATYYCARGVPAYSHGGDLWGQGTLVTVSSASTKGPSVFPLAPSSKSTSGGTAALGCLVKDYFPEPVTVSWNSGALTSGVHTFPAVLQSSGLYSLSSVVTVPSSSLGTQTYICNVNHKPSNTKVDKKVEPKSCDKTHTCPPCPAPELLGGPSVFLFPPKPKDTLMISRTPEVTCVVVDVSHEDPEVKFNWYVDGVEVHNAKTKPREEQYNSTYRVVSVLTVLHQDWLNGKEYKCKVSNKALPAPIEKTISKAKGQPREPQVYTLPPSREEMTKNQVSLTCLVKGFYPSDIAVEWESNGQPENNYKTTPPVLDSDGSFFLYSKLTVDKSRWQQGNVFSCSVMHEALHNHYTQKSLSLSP
light: DIVMTQSPATLSLSPGERATLSCTSSQSVYHANWLSWFQQKPGQPPKLLIYWASTLAYGVPSRFSGSGSGTDFTLTISSLQPEDAATYYCAGGYGGGRYAFGQGTKVEIKRTVAAPSVFIFPPSDEQLKSGTASVVCLLNNFYPREAKVQWKVDNALQSGNSQESVTEQDSKDSTYSLSSTLTLSKADYEKHKVYACEVTHQGLSSPVTKSFNRGEC
notes: parent antibody of the Fc variants; human heavy chain constant region SG1; also called MS1032LO06-SG1
B2 was tested, and the Kd [3] was 0.56 µM.

B3: M103205H795-MY199/M103202L889-SK1 (antibody, human IgG1, kappa, name in EU numbering)
heavy: QVTLKESGPVLVKPTETLTLTCTVSGIDLSHDDISWVRQAPGKGLEWVGIISYAGSTYYASWAKGRLTISKDTSKNQVVLTMTNMDPVDTATYYCARGVPAYSHGGDLWGQGTLVTVSSASTKGPSVFPLAPSSKSTSGGTAALGCLVKDYFPEPVTVSWNSGALTSGVHTFPAVLQSSGLYSLSSVVTVPSSSLGTQTYICNVNHKPSNTKVDKKVEPKSCDKTHTCPPCPAPELLNGPSVFLFPPKPKDTLMISRTPEVTCVVVDVSEEDPEVKFNWYVDGVEVHNAKTKPREEQYNSTYRVVSVLTVLHQDWLNGKEYKCKVSNKALPKPIEKTISKAKGQPREPQVYTLPPSREEMTKNQVSLTCLVKGFYPSDIAVEWESNGQPENNYKTTPPVLDSDGSFFLYSKLTVDKSRWQQGNVFSCSVMHEALHNHYTQKSLSLSP
light: DIVMTQSPATLSLSPGERATLSCTSSQSVYHANWLSWFQQKPGQPPKLLIYWASTLAYGVPSRFSGSGSGTDFTLTISSLQPEDAATYYCAGGYGGGRYAFGQGTKVEIKRTVAAPSVFIFPPSDEQLKSGTASVVCLLNNFYPREAKVQWKVDNALQSGNSQESVTEQDSKDSTYSLSSTLTLSKADYEKHKVYACEVTHQGLSSPVTKSFNRGEC
notes: substitutions in EU numbering, introduced into M103205H795-SG1
For B3, the “KD fold (SG1 = 1)” value [4] was 0.09 fold.

B4: MS1032LO06-P1499m (antibody, human IgG1, kappa, name in EU numbering)
heavy: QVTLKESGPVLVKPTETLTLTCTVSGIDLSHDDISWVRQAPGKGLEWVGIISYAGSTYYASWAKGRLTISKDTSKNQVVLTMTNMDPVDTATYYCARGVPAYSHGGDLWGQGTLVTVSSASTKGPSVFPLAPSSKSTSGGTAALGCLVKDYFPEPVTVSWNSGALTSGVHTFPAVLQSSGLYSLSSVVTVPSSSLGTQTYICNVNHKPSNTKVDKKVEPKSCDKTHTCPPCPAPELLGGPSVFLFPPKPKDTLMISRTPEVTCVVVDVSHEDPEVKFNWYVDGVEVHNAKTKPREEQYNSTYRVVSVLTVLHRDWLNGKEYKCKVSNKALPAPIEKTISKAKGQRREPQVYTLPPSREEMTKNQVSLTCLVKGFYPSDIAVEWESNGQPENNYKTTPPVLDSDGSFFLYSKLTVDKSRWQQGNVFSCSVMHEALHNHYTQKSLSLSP
light: DIVMTQSPATLSLSPGERATLSCTSSQSVYHANWLSWFQQKPGQPPKLLIYWASTLAYGVPSRFSGSGSGTDFTLTISSLQPEDAATYYCAGGYGGGRYAFGQGTKVEIKRTVAAPSVFIFPPSDEQLKSGTASVVCLLNNFYPREAKVQWKVDNALQSGNSQESVTEQDSKDSTYSLSSTLTLSKADYEKHKVYACEVTHQGLSSPVTKSFNRGEC
notes: also called M103205H795-P1499m
For B4, the “celluar uptake (labelled human latent myostatin taken up as antigen-antibody complex)” value [1] was 3.61 relative to SG1 = 1.00 and the “biacore IC binding (relative, SG1 = 1.00)” value [2] was 1.98 relative to SG1.

B5: M103205H795-MY206/M103202L889-SK1 (antibody, human IgG1, kappa, name in EU numbering)
heavy: QVTLKESGPVLVKPTETLTLTCTVSGIDLSHDDISWVRQAPGKGLEWVGIISYAGSTYYASWAKGRLTISKDTSKNQVVLTMTNMDPVDTATYYCARGVPAYSHGGDLWGQGTLVTVSSASTKGPSVFPLAPSSKSTSGGTAALGCLVKDYFPEPVTVSWNSGALTSGVHTFPAVLQSSGLYSLSSVVTVPSSSLGTQTYICNVNHKPSNTKVDKKVEPKSCDKTHTCPPCPAPELLNGPVVFLFPPKPKDTLMISRTPEVTCVVVDVSDEDPEVKFNWYVDGVEVHNAKTKPREELYNSTYRVVSVLTVLHQDWLNGKEYKCKVSNKALPKPIEKTISKAKGQPREPQVYTLPPSREEMTKNQVSLTCLVKGFYPSDIAVEWESNGQPENNYKTTPPVLDSDGSFFLYSKLTVDKSRWQQGNVFSCSVMHEALHNHYTQKSLSLSP
light: DIVMTQSPATLSLSPGERATLSCTSSQSVYHANWLSWFQQKPGQPPKLLIYWASTLAYGVPSRFSGSGSGTDFTLTISSLQPEDAATYYCAGGYGGGRYAFGQGTKVEIKRTVAAPSVFIFPPSDEQLKSGTASVVCLLNNFYPREAKVQWKVDNALQSGNSQESVTEQDSKDSTYSLSSTLTLSKADYEKHKVYACEVTHQGLSSPVTKSFNRGEC
notes: as for B3
For B5, the “KD fold (SG1 = 1)” value [4] was 0.11 fold.

B6: M103205H795-MY174/M103202L889-SK1 (antibody, human IgG1, kappa, name in EU numbering)
heavy: QVTLKESGPVLVKPTETLTLTCTVSGIDLSHDDISWVRQAPGKGLEWVGIISYAGSTYYASWAKGRLTISKDTSKNQVVLTMTNMDPVDTATYYCARGVPAYSHGGDLWGQGTLVTVSSASTKGPSVFPLAPSSKSTSGGTAALGCLVKDYFPEPVTVSWNSGALTSGVHTFPAVLQSSGLYSLSSVVTVPSSSLGTQTYICNVNHKPSNTKVDKKVEPKSCDKTHTCPPCPAPELLNGPSVFLFPPKPKDTLMISRTPEVTCVVVDVSEEDPEVKFNWYVDGVEVHNAKTKPREEQYNSTYRVVSVLTVLHQDWLNGKEYKCKVSNKALPAPIEKTISKAKGQPREPQVYTLPPSREEMTKNQVSLTCLVKGFYPSDIAVEWESNGQPENNYKTTPIVLDSDGSFFLYSKLTVDKSRWQQGNVFSCSVMHEALHNHYTQKSLSLSP
light: DIVMTQSPATLSLSPGERATLSCTSSQSVYHANWLSWFQQKPGQPPKLLIYWASTLAYGVPSRFSGSGSGTDFTLTISSLQPEDAATYYCAGGYGGGRYAFGQGTKVEIKRTVAAPSVFIFPPSDEQLKSGTASVVCLLNNFYPREAKVQWKVDNALQSGNSQESVTEQDSKDSTYSLSSTLTLSKADYEKHKVYACEVTHQGLSSPVTKSFNRGEC
notes: EU numbering
B6 was tested, and the “KD fold (SG1 = 1)” value [4] was 0.14 fold and the Kd [4] was 2.5 µM.

B7: M103205H795-MY518/M103202L889-SK1 (antibody)
heavy: QVTLKESGPVLVKPTETLTLTCTVSGIDLSHDDISWVRQAPGKGLEWVGIISYAGSTYYASWAKGRLTISKDTSKNQVVLTMTNMDPVDTATYYCARGVPAYSHGGDLWGQGTLVTVSSASTKGPSVFPLAPSSKSTSGGTAALGCLVKDYFPEPVTVSWNSGALTSGVHTFPAVLQSSGLYSLSSVVTVPSSSLGTQTYICNVNHKPSNTKVDKKVEPKSCDKTHTCPPCPAPELWNGPSVFLFPPKPKDTLMISRTPEVTCVVVDVSDEDPEVKFNWYVDGVEVHNAKTKPREELYNSTYRVVSVLTVLHQDWLNGKEYKCKVSNTALPKPIEKTISKAKGQPREPQVYTLPPSREEMTKNQVSLTCLVKGFYPSDIAVEWESNGQPENNYKTTPPVLDSDGSFFLYSKLTVDKSRWQQGNVFSCSVMHEALHNHYTQKSLSLSP
light: DIVMTQSPATLSLSPGERATLSCTSSQSVYHANWLSWFQQKPGQPPKLLIYWASTLAYGVPSRFSGSGSGTDFTLTISSLQPEDAATYYCAGGYGGGRYAFGQGTKVEIKRTVAAPSVFIFPPSDEQLKSGTASVVCLLNNFYPREAKVQWKVDNALQSGNSQESVTEQDSKDSTYSLSSTLTLSKADYEKHKVYACEVTHQGLSSPVTKSFNRGEC
B7 was tested, and the “KD fold (SG1 = 1)” value [4] was 0.09 fold.
